Assay results as given in publication PMC5362816.
Each block holds one binder with its values, some of them ahead of it.

Molecular target: CaM-agarose (Sigma), P62157
Assay: pull-down; CaM-agarose (Sigma) incubated with HEK293 lysate expressing a V5-His-tagged TRP channel; 20 mM Tris-HCl pH 7.4, 150 mM NaCl, 1% NP-40, 4 °C; 1 mM Ca2+ (Fig. 2A) or 2 mM Ca2+ (Fig. 2B); blot with anti-V5
Settings: remark: other sources report otherwise

relative binding to CaM (normalized by total input): 0.9
B1: TRPM8 (V5-His tagged), Q8R455 1-1104 (natural protein)
chain: MSFEGARLSMRSRRNGTLGSTRTLYSSVSRSTDVSYSESDLVNFIQANFKKRECVFFTRDSKAMESICKCGYAQSQHIEGTQINQNEKWNYKKHTKEFPTDAFGDIQFETLGKKGKYLRLSCDTDSETLYELLTQHWHLKTPNLVISVTGGAKNFALKPRMRKIFSRLIYIAQSKGAWILTGGTHYGLMKYIGEVVRDNTISRNSEENIVAIGIAAWGMVSNRDTLIRNCDDEGHFSAQYIMDDFMRDPLYILDNNHTHLLLVDNGCHGHPTVEAKLRNQLEKYISERTSQDSNYGGKIPIVCFAQGGGRETLKAINTSVKSKIPCVVVEGSGQIADVIASLVEVEDVLTSSMVKEKLVRFLPRTVSRLPEEEIESWIKWLKEILESPHLLTVIKMEEAGDEVVSSAISYALYKAFSTNEQDKDNWNGQLKLLLEWNQLDLASDEIFTNDRRWESADLQEVMFTALIKDRPKFVRLFLENGLNLQKFLTNEVLTELFSTHFSTLVYRNLQIAKNSYNDALLTFVWKLVANFRRSFWKEDRSSREDLDVELHDASLTTRHPLQALFIWAILQNKKELSKVIWEQTKGCTLAALGASKLLKTLAKVKNDINAAGESEELANEYETRAVELFTECYSSDEDLAEQLLVYSCEAWGGSNCLELAVEATDQHFIAQPGVQNFLSKQWYGEISRDTKNWKIILCLFIIPLVGCGLVSFRKKPIDKHKKLLWYYVAFFTSPFVVFSWNVVFYIAFLLLFAYVLLMDFHSVPHTPELILYALVFVLFCDEVRQWYMNGVNYFTDLWNVMDTLGLFYFIAGIVFRLHSSNKSSLYSGRVIFCLDYIIFTLRLIHIFTVSRNLGPKIIMLQRMLIDVFFFLFLFAVWMVAFGVARQGILRQNEQRWRWIFRSVIYEPYLAMFGQVPSDVDSTTYDFSHCTFSGNESKPLCVELDEYNLPRFPEWITIPLVCIYMLSTNILLVNLLVAMFGYTVGIVQENNDQVWKFQRYFLVQEYCNRLNIPFPFVVFAYFYMVVKKCFKCCCKEKNTESSACCFRNEDNETLAWEGVMKENYLVKINTKANDNAEEMRHRFRQLDTKLNDLKGLLKEIANKIK
modifications: here or on the partner: coupled to agarose

relative binding to CaM (normalized by total input): 0.8
B2: TRPV2 (V5-His tagged), Q9WUD2 1-761 (natural protein)
chain: MTSASSPPAFRLETSDGDEEGNAEVNKGKQEPPPMESPFQREDRNSSPQIKVNLNFIKRPPKNTSAPSQQEPDRFDRDRLFSVVSRGVPEELTGLLEYLRWNSKYLTDSAYTEGSTGKTCLMKAVLNLQDGVNACIMPLLQIDKDSGNPKLLVNAQCTDEFYQGHSALHIAIEKRSLQCVKLLVENGADVHLRACGRFFQKHQGTCFYFGELPLSLAACTKQWDVVTYLLENPHQPASLEATDSLGNTVLHALVMIADNSPENSALVIHMYDGLLQMGARLCPTVQLEEISNHQGLTPLKLAAKEGKIEIFRHILQREFSGPYQPLSRKFTEWCYGPVRVSLYDLSSVDSWEKNSVLEIIAFHCKSPNRHRMVVLEPLNKLLQEKWDRLVSRFFFNFACYLVYMFIFTVVAYHQPSLDQPAIPSSKATFGESMLLLGHILILLGGIYLLLGQLWYFWRRRLFIWISFMDSYFEILFLLQALLTVLSQVLRFMETEWYLPLLVLSLVLGWLNLLYYTRGFQHTGIYSVMIQKVILRDLLRFLLVYLVFLFGFAVALVSLSREARSPKAPEDNNSTVTEQPTVGQEEEPAPYRSILDASLELFKFTIGMGELAFQEQLRFRGVVLLLLLAYVLLTYVLLLNMLIALMSETVNHVADNSWSIWKLQKAISVLEMENGYWWCRRKKHREGRLLKVGTRGDGTPDERWCFRVEEVNWAAWEKTLPTLSEDPSGPGITGNKKNPTSKPGKNSASEEDHLPLQVLQSP
modifications: here or on the partner: coupled to agarose
